{
  "source": "paper PMC4118829",
  "key": {"[1]": {"molecular_target": "N-terminal domain of the ectodomain of Hepatitis C virus envelope glycoprotein E1, N43Q (Hepatitis C virus)", "test": "SEC; size-exclusion chromatography; data not shown"}, "[2]": {"molecular_target": "N-terminal domain of the ectodomain of Hepatitis C virus envelope glycoprotein E1, N43Q (Hepatitis C virus)", "test": "reducing and nonreducing SDS-PAGE; 15% reducing (R) and nonreducing (NR) SDS-PAGE gels of purified deglycosylated HCV nE1; covalent dimer"}},
  "data": [
    {"substance": "N-terminal domain of the ectodomain of Hepatitis C virus envelope glycoprotein E1, N43Q (domain or fragment)", "values": [
      {"measurement": "stoichiometry N", "setting": "[1]", "value": 2},
      {"measurement": "stoichiometry N", "setting": "[2]", "value": 2}
    ]}
  ]
}
